Results on four compounds are retold here after patent publication US20210355187A1, “GLP-2 FUSION POLYPEPTIDES AND USES FOR TREATING AND PREVENTING GASTROINTESTINAL CONDITIONS” (SHIRE-NPS PHARMACEUTICALS, INC., priority 2018, published 2021).

Like-named read-outs stand apart in the source and are kept apart here.

The nature of data set [1]: SEC-MALS assay (protein stability analysis). Type of data set: physicochemical. The following applies: for SEC-MALS HMW: high molecular weight fraction; for SEC-MALS Main Peak: main peak fraction; for SEC-MALS Tailing Peak: tailing peak fraction. As for the experimental part:
A SEC-MALS assay was performed to determine the primary state (main peak) and its molecular weight. The GLP-2 peptibody A has the amino acid sequence set forth in SEQ ID NO: 1. The GLP-2 peptibody B has the amino acid sequence set forth in SEQ ID NO: 4. The GLP-2 peptibody C has the amino acid sequence set forth in SEQ ID NO: 7. The GLP-2 peptibody D has the amino acid sequence set forth in SEQ ID NO: 10.
On the technique in general: In gel filtration, larger molecules generally elute earlier.

The conditions of data set [2]: cited from earlier work.

With “GLP-2 peptibody B: GLP-2[A2G]-linker APAPAPAPAPAPAPAPAPAP-IgG1(LALA) Fc fusion having the amino acid sequence of SEQ ID NO: 4”, in data set [1], the “SEC-MALS HMW” value was 1.2% HMW, the “SEC-MALS Main Peak” value is 80.7% Main Peak and the “SEC-MALS Tailing Peak” value was determined as 18.1% Tailing Peak.
Take “GLP-2 peptibody C: GLP-2[A2G]-linker AEAAAKEAAAKEAAAKALEAEAAAKEAAAKEAAAKA-IgG1(LALA) Fc fusion having the amino acid sequence of SEQ ID NO: 7”: in data set [1], the “SEC-MALS Main Peak” value was determined as 82.6% Main Peak and the “SEC-MALS Tailing Peak” value is on record as 17.4% Tailing Peak.
As to `CC[C@H](C)[C@H](NC(=O)[C@H](Cc1ccccc1)NC(=O)[C@H](CC(=O)O)NC(=O)[C@H](CCCNC(=N)N)NC(=O)[C@H](C)NC(=O)[C@H](C)NC(=O)[C@H](CC(C)C)NC(=O)[C@H](CC(N)=O)NC(=O)[C@H](CC(=O)O)NC(=O)[C@H](CC(C)C)NC(=O)[C@@H](NC(=O)[C@@H](NC(=O)[C@H](CC(N)=O)NC(=O)[C@H](CCSC)NC(=O)[C@H](CCC(=O)O)NC(=O)[C@H](CC(=O)O)NC(=O)[C@H](CO)NC(=O)[C@H](Cc1ccccc1)NC(=O)[C@H](CO)NC(=O)CNC(=O)[C@H](CC(=O)O)NC(=O)CNC(=O)[C@@H](N)Cc1c[nH]cn1)[C@@H](C)O)[C@@H](C)CC)C(=O)N[C@@H](CC(N)=O)C(=O)N[C@@H](Cc1c[nH]c2ccccc12)C(=O)N[C@@H](CC(C)C)C(=O)N[C@H](C(=O)N[C@@H](CCC(N)=O)C(=O)N[C@H](C(=O)N[C@@H](CCCCN)C(=O)N[C@H](C(=O)N[C@H](C(=O)N[C@@H](CC(=O)O)C(=O)O)[C@@H](C)O)[C@@H](C)CC)[C@@H](C)O)[C@@H](C)CC` [Teduglutide], the half-life (in general, how long it takes for the measured level to halve) in data set [2] (SBS patients) was about 1.3 h; in data set [2] (healthy patients), “approximately 2 hours”.
In the case of “GLP-2 peptibody D: GLP-2[A2G] with C-terminal arginine-linker GGGGSGGGGSGGGGS-IgG1(LALA) Fc fusion having the amino acid sequence of SEQ ID NO: 10”, in data set [1], the “SEC-MALS HMW” value is reported as 1.4% HMW, the “SEC-MALS Main Peak” value is 86.8% Main Peak and the “SEC-MALS Tailing Peak” value came out at 11.8% Tailing Peak.
